From US20200240982A1 (GOVERNMENT OF THE UNITED STATES OF AMERICA AS REPRESENTED …, published 2020) come the findings set out here.

Assay [1] concerns the target T1, Staphylococcal enterotoxin B (UniProt P01552 28-266).
T1 sequence: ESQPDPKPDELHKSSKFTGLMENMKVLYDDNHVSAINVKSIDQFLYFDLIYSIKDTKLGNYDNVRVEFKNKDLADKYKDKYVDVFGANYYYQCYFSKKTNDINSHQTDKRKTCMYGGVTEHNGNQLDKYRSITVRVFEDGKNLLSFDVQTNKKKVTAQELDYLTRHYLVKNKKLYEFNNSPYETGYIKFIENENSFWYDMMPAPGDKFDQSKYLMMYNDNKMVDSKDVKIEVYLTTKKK
As to the kind of experiment: MagPlex sandwich fluoroimmunoassay; capture sdAb attached directly by EDC/sNHS.

Assay [2] addresses Dengue NS1 protein (serotype not given) (Dengue virus).

B1: AcVe anti-SEB sdAb monomer (VHH)
VHH: DVQLVESGGGLVQPGGSLRLTCAASGLIFGSYAMGWFRQAPGKAREFVAAISWSGGDTYADSVKGRFTISRDNAKNTVYLQMNSLEPEDTAVYSCAAVGSKYYISKDAKDYGYWGQGTQVTVSS
For the molecule B1, the binding result in assay [1] is on record as “binds”.

B2: DD7-DD7-SpyTag (VHH)
chain: EVQLVQSGGGSVQAGGSLRLSCAHSSITVPDYTIGWFRRAPGKGGEEVSLISMHGGRSWYAGSVKGRFAISRDSVKNTVYLQMNNLKPEDTDIYYCGGTTFGLAAAPNEYDSWGQGSQVTVSSGGGGSGGGGSGSEVQLVQSGGGSVQAGGSLRLSCAHSSITVPDYTIGWFRRAPGKGGEEVSLISMHGGRSWYAGSVKGRFAISRDSVKNTVYLQMNNLKPEDTDIYYCGGTTFGLAAAPNEYDSWGQGSQVTVSSGGGGSGGGGSGSAHIVMVDAYKPTKAAALEHHHHHH
Consider B2, for which the “fold improvement in ability to detect NS1 (against DD7-gs3k)” value in assay [2] is around 25 fold.
